Numbering of substitutions follows the chain as printed.
Tests used:
Assay in all cases: BLI (Octet), biotinylated mAb on streptavidin sensors, culture supernatant
[1] = biological target: T1, RSV181179 (I152M + K226M + D486N) (respiratory syncytial virus, subgroup B …, UniProt O36634 26-109; P13843 137-540)
T1 construct: Measured in crude culture supernatant, no furin co-transfection
T1 chain 1: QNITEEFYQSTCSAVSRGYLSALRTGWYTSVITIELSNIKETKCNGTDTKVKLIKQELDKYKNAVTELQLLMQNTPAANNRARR
T1 chain 2: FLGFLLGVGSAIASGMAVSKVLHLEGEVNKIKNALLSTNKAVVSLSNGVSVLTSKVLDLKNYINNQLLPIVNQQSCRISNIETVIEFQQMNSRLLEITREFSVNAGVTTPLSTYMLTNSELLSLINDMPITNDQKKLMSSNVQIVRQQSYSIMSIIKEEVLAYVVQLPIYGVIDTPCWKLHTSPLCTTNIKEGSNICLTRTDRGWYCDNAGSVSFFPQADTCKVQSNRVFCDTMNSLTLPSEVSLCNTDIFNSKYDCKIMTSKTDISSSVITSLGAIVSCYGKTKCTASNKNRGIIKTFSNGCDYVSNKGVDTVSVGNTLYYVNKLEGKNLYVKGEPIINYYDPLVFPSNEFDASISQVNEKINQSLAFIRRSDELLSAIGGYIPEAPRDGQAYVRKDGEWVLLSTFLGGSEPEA
Description: (§1) Quantitative Octet (BioLayer Interferometry) was used for measuring protein concentration in the supernatants at day of harvest and after 7 or 30 days storage at 4° C. CR9501 (an antibody specifically recognizing pre-fusion RSV F protein, which comprises the variable regions of the antibodies 58C5 as described in WO2012/006596) and CR9506 (recognizing pre-fusion and post-fusion RSV F protein and comprising a heavy chain variable region comprising SEQ ID NO: 21, and a light chain variable region comprising SEQ ID NO: 22) were biotinylated by standard protocols and immobilized on Streptavidin biosensors (ForteBio, Portsmouth, UK).
(§2) Afterwards, the coated biosensors were blocked in mock cell culture supernatant. A quantitative experiment was performed as follows: temperature 30° C., shaking speed 1000 rpm, time of the assay 300 sec. The concentration of the protein was calculated using a standard curve. The standard curve was prepared for each coated antibody CR9501 and CR9506 using the pre-fusion RSV FA protein (SEQ ID NO: 19; described previously in WO17174568) diluted in mock medium. […] The data analysis was done using the ForteBio Data Analysis 10.0.1.6 software (ForteBio).

[2] = biological target: T2, RSV181181 (I152M + K226M + D486N + S215P + P101Q + D489Y) (respiratory syncytial virus, subgroup B …, UniProt O36634 26-109; P13843 137-540)
T2 chain 1: T1 chain 1 with P76Q
T2 chain 2: T1 chain 2 with S79P, D353Y
Description: as §1, §2

[3] = biological target: T3, RSV181182 (I152M + K226M + D486N + S215P + P101Q + D489Y + T357R + N371Y) (respiratory syncytial virus, subgroup B …, UniProt O36634 26-109; P13843 137-540)
T3 chain 1: T1 chain 1 with P76Q
T3 chain 2: T1 chain 2 with S79P, T221R, N235Y, D353Y
Description: as §1, §2

[4] = biological target: T4, RSV190417 (tag-free; I152M + K226M + D486N + S215P + L203I + P101Q + D489Y) (respiratory syncytial virus, subgroup B …, UniProt O36634 26-109; P13843 137-540)
T4 construct: Measured in culture supernatant, furin co-transfected
T4 chain 1: T1 chain 1 with P76Q
T4 chain 2: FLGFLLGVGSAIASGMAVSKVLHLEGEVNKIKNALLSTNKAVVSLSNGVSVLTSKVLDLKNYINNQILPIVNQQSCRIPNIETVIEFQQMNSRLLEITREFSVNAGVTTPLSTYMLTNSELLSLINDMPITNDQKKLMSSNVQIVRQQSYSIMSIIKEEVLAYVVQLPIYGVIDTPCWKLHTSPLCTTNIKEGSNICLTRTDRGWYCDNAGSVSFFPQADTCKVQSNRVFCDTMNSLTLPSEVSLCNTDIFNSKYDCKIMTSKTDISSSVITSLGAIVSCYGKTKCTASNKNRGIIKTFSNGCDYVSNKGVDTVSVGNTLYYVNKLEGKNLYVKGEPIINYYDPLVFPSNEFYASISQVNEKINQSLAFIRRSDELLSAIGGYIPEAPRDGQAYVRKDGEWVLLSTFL
Description: as §1, §2

Measured: binding result

B1: CR9506 (antibody, human IgG1, kappa, V domains shown)
VH: EVQLVQSGAEVKKPGSSVKVSCKASGGTFSRSLITWVRQAPGQGLEWMGEISLVFGSAKNAQKFQGRVTITADESTSTAHMEMISLKHEDTAVYYCAAHQYGSGTHNNFWDESELRFDLWGQGTLVTVSS
VL: DIVMTQSPSSLSASVGDRVTIACRASQSIGTYLNWYQQKPGKAPKLLIYAASSLQSGVPSRFSGSGSGTHFTLAISSLQAEDFATYSCQQSYTIPYTFGQGTKLEIKR
notes: Biotinylated for Octet; coated and also used HRP-labelled as detection antibody in the ELISA
binds: [1] | [2] | [3] | [4]
